Test results reported in US20230039487A1.

How the values were obtained:
[1] = molecular target: hBCMA-mFc (UniProt Q02223); assay: competition ELISA; isotype control; blocking of APRIL binding
[2] = molecular target: hBCMA-His (human) (UniProt Q02223); assay: ELISA; isotype control
Sequence of hBCMA-His (human) (Q02223 1-54): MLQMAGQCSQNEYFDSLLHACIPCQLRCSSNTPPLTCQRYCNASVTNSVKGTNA

Sequence of hBCMA-mFc (Q02223 1-54): as above

Substance h IgG1 ISO has an IC50 [1] of 202 nM and an EC50 [2] of 61.4 nM.
